We go through 3 molecules from US20030120051A1 (SUGEN, published 2003).

One assay addresses T1, human CASPR/p190 (human, UniProt P78357 20-1384).
T1 construct: Endogenous in IMR-32 neuroblastoma cells
T1 sequence: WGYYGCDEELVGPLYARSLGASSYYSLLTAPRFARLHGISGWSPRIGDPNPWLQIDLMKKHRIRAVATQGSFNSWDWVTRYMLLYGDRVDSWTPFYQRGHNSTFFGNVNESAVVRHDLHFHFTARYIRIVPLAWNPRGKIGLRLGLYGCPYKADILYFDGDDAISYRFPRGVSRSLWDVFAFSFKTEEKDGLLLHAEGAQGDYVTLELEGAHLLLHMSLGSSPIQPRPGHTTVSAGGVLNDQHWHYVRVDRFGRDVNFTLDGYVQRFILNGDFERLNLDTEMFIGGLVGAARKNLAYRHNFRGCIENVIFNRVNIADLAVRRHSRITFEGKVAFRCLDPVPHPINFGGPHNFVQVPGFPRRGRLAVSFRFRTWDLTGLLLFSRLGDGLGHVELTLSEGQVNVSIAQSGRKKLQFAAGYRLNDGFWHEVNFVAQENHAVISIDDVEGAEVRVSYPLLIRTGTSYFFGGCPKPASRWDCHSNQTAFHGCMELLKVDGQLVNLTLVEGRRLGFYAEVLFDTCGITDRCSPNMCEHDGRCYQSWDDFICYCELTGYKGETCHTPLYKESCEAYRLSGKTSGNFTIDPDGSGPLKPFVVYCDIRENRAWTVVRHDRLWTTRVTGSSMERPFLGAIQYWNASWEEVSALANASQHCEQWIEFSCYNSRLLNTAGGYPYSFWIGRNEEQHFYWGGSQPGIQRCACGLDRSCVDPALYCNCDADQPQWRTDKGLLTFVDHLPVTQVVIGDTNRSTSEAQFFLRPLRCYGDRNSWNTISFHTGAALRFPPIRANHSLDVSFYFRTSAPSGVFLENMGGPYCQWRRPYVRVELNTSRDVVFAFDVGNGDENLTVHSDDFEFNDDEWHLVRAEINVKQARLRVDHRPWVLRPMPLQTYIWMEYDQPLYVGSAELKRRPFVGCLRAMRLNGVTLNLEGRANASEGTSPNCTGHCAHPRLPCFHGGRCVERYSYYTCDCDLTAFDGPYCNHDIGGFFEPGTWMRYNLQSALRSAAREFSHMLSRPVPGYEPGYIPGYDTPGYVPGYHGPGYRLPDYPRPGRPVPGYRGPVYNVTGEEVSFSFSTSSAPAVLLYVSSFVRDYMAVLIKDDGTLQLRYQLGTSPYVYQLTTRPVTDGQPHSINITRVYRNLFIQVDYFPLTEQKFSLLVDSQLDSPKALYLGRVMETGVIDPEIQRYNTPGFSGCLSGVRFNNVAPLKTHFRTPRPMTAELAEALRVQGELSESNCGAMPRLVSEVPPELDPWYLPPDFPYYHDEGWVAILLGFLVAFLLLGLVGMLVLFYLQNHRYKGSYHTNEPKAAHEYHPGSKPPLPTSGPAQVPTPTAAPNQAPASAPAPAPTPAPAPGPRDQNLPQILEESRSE
As to the kind of experiment: immunoprecipitation of IMR-32 lysates with CASPR/p190 antibodies, immunoblotting with contactin antibodies.

The target of the next assay is human c-Src (human, UniProt P12931 2-536). As to the kind of experiment: immunoprecipitation of transfected COS7 lysates with antibodies against c-Src, immunoblotting with anti-fusion antibodies.
A further assay addresses T2, rat CASPR/p190 (rat, UniProt P97846 21-1381).
T2 construct: Endogenous in GH3 cells and rat brain, or expressed from pCM190R in COS7 cells; read from membrane lysates; no cleavage site stated; also called Contactin ASsociated PRotein; 190 kDa protein
T2 sequence: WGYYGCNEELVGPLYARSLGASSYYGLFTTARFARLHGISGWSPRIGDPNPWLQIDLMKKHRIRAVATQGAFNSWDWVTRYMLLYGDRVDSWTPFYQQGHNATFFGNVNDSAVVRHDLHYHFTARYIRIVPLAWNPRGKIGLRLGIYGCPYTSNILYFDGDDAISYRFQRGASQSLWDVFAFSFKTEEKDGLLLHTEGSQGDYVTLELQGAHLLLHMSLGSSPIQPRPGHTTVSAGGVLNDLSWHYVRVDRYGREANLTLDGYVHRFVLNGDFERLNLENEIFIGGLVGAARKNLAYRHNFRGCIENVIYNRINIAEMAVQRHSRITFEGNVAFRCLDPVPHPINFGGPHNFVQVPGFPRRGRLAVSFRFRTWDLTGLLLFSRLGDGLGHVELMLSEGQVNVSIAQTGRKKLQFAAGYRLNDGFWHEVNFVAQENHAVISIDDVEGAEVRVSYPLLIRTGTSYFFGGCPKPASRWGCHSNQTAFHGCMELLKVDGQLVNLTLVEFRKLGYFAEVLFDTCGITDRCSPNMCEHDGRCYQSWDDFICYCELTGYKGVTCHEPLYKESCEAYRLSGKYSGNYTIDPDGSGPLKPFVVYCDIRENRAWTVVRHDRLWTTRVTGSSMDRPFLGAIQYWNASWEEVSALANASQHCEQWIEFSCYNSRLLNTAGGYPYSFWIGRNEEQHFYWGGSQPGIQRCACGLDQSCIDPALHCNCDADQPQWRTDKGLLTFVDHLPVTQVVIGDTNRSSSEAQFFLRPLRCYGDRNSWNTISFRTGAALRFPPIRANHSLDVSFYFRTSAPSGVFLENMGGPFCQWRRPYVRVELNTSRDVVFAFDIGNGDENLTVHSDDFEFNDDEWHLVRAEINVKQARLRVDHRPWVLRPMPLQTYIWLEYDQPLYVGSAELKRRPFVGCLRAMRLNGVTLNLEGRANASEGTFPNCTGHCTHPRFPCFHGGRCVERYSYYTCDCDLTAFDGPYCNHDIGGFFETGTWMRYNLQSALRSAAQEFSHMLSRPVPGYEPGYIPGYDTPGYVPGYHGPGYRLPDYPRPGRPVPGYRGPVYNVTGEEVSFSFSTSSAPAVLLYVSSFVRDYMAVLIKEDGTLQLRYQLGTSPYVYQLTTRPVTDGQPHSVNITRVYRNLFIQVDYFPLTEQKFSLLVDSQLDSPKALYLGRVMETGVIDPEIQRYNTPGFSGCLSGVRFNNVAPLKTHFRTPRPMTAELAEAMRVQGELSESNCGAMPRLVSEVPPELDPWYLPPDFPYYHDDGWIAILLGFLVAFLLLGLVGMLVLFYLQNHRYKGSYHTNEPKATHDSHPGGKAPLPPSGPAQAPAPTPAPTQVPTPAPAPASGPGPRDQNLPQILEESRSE
As to the kind of experiment: co-precipitation of p190 with contactin by the RPTPβ Fc fusion from GH3 membrane extracts.

B1: human contactin of IMR-32 neuroblastoma cells (140 kDa protein) (receptor, UniProt Q12860 21-993, looked up)
chain: EFTWYRRYGHGVSEEDKGFGPIFEEQPINTIYPEESLEGKVSLNCRARASPFPVYKWRMNNGDVDLTSDRYSMVGGNLVINNPDKQKDAGIYYCLASNNYGMVRSTEATLSFGYLDPFPPEERPEVRVKEGKGMVLLCDPPYHFPDDLSYRWLLNEFPVFITMDKRRFVSQTNGNLYIANVEASDKGNYSCFVSSPSITKSVFSKFIPLIPIPERTTKPYPADIVVQFKDVYALMGQNVTLECFALGNPVPDIRWRKVLEPMPSTAEISTSGAVLKIFNIQLEDEGIYECEAENIRGKDKHQARIYVQAFPEWVEHINDTEVDIGSDLYWPCVATGKPIPTIRWLKNGYAYHKGELRLYDVTFENAGMYQCIAENTYGAIYANAELKILALAPTFEMNPMKKKILAAKGGRVIIECKPKAAPKPKFSWSKGTEWLVNSSRILIWEDGSLEINNITRNDGGIYTCFAENNRGKANSTGTLVITDPTRIILAPINADITVGENATMQCAASFDPALDLTFVWSFNGYVIDFNKENIHYQRNFMLDSNGELLIRNAQLKHAGRYTCTAQTIVDNSSASADLVVRGPPGPPGGLRIEDIRATSVALTWSRGSDNHSPISKYTIQTKTILSDDWKDAKTDPPIIEGNMEAARAVDLIPWMEYEFRVVATNTLGRGEPSIPSNRIKTDGAAPNVAPSDVGGGGGRNRELTITWAPLSREYHYGNNFGYIVAFKPFDGEEWKKVTVTNPDTGRYVHKDETMSPSTAFQVKVKAFNNKGDGPYSLVAVINSAQDAPSEAPTEVGVKVLSSSEISVHWEHVLEKIVESYQIRYWAAHDKEEAANRVQVTSQEYSARLENLLPDTQYFIEVGACNSAGCGPPSDMIEAFTKKAPPSQPPRIISSVRSGSRYIITWDHVVALSNESTVTGYKVLYRPDGQHDGKLYSTHKHSIEVPIPRDGEYVVEVRAHSDGGDGVVSQVKIS
modifications: GPI-anchored
notes: whole, on cells; also called p140
With B1, the binding result in the assay with human CASPR/p190 is recorded as “binds”.

B2: HA-tagged rat CASPR/p190 (pCM190HA) (receptor, not shown: small tags and cut ends)
chain: T2 sequence
notes: Expressed in COS7 cells; also called tagged CASPR/p190; CASPR/p190 fusion proteins
With B2, the binding result with human c-Src is given as “binds”.

B3: rat contactin (clone F8; p140 of GH3 cells) (receptor, UniProt Q63198 21-1001, looked up)
chain: EFTWHRRYGHGVSEEDKGFGPIFEEQPINTIYPEESLEGKVSLNCRARASPFPVYKWRMNNGDVDLTNDRYSMVGGNLVINNPDKQKDAGIYYCLASNNYGMVRSTEATLSFGYLDPFPPEDRPEVKVKEGKGMVLLCDPPYHFPDDLSYRWLLNEFPVFITMDKRRFVSQTNGNLYIANVESSDRGNYSCFVSSPSITKSVFSKFIPLIPIPERTTKPYPADIVVQFKDIYTMMGQNVTLECFALGNPVPDIRWRKVLEPMPTTAEISTSGAVLKIFNIQLEDEGLYECEAENIRGKDKHQARIYVQAFPEWVEHINDTEVDIGSDLYWPCVATGKPIPTIRWLKNGYAYHKGELRLYDVTFENAGMYQCIAENAYGTIYANAELKILALAPTFEMNPMKKKILAAKGGRVIIECKPKAAPKPKFSWSKGTEWLVNSSRILIWEDGSLEINNITRNDGGIYTCFAENNRGKANSTGTLVITNPTRIILAPINADITVGENATMQCAASFDPSLDLTFVWSFNGYVIDFNKEITNIHYQRNFMLDANGELLIRNAQLKHAGRYTCTAQTIVDNSSASADLVVRGPPGPPGGLRIEDIRATSVALTWSRGSDNHSPISKYTIQTKTILSDDWKDAKTDPPIIEGNMESAKAVDLIPWMEYEFRVVATNTLGTGEPSIPSNRIKTDGAAPNVAPSDVGGGGGTNRELTITWAPLSREYHYGNNFGYIVAFKPFDGEEWKKVTVTNPDTGRYVHKDETMTPSTAFQVKVKAFNNKGDGPYSLIAVINSAQDAPSEAPTEVGVKVLSSSEISVHWKHVLEKIVESYQIRYWAGHDKEAAAHRVQVTSQEYSARLENLLPDTQYFIEVGACNSAGCGPSSDVIETFTRKAPPSQPPRIISSVRSGSRYIITWDHVVALSNESTVTGYKILYRPDGQHDGKLFSTHKHSIEVPIPRDGEYVVEVRAHSDGGDGVVSQVKISGVSTLS
modifications: GPI-anchored
notes: whole, on cells; On transfected COS7 cells, on GH3 cells, in solubilized GH3 membranes or in rat brain membranes, as the entry says; also called rat homologue of contactin; F3/F11
For the molecule B3, the binding result with rat CASPR/p190 is listed as “binds”.
